T1: rhADAM10 (human, UniProt O14672)
T1 construct: also called recombinant human ADAM10 (AD936, R&D Systems)
T1 sequence (recombinant ADAM10 polypeptide, looked up): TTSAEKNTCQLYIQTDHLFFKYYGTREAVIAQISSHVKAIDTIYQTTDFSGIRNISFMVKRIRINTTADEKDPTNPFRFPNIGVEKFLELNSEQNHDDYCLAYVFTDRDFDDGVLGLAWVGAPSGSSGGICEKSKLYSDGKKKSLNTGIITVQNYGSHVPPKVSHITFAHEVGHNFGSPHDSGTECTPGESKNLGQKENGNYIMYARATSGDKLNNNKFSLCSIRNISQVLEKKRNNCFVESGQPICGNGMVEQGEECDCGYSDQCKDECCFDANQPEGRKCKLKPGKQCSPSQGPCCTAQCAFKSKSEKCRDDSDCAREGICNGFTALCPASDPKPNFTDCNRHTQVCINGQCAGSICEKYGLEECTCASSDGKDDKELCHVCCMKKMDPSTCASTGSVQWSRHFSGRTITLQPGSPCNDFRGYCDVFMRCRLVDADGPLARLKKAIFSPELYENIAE


Key:
[1] = molecular target: T2, ADAM17 on the surface of human tumour cells (A431 substrate-Nluc cells; NCI-H1299) (human, UniProt P78536 215-824); test: flow cytometry on the tumour cell line NCI-H1299, antibody titration
T2 construct: Endogenous ADAM17 of human tumour cell lines; also called ADAM17 at the plasma membrane; tumour cell line NCI-H1299
T2 sequence (P78536 215-824 limits assumed): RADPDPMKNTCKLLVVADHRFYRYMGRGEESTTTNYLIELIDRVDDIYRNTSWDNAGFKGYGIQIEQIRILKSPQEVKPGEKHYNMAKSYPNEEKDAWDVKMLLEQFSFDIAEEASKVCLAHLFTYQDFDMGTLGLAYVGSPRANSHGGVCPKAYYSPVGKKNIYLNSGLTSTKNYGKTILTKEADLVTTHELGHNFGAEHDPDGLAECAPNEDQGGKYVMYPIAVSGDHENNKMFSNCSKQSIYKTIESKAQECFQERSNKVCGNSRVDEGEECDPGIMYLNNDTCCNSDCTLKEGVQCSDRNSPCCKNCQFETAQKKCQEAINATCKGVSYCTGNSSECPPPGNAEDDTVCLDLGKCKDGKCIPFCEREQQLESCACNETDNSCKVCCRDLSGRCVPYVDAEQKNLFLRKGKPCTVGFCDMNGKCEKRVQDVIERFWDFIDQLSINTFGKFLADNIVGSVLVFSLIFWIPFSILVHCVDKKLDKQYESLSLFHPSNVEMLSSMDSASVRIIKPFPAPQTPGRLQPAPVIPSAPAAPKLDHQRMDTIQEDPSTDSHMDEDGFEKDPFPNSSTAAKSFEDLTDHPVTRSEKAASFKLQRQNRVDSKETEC

[2] = molecular target: soluble ADAM17 (extracellular domain of ADAM-17) (human, UniProt P78536 215-671); test: SPR (Biacore), antibody captured on rabbit anti-mouse IgG, soluble ADAM17 400-12.5 nM, 1:1 Langmuir fit
Sequence of soluble ADAM17 (extracellular domain of ADAM-17) (P78536 215-671): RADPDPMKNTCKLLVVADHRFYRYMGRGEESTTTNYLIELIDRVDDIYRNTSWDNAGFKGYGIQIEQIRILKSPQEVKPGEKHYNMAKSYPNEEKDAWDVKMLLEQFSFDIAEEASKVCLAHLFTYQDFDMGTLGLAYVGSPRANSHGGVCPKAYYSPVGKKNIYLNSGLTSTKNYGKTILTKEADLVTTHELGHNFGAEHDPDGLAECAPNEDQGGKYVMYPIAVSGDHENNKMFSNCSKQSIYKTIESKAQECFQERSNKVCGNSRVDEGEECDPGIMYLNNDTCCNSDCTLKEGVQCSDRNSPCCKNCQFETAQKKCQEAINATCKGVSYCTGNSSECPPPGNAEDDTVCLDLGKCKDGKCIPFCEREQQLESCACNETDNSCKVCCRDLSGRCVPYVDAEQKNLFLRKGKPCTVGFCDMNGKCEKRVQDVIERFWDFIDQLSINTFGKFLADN
Method: The antibody (ligand) was bound to the second flowcell of a Biacore CM5 sensor chip (GE Healthcare) activated on both flowcells with a Rabbit anti-Mouse (RAM) IgG (H+L) covalently linked to the carboxymethyldextran matrix. Soluble ADAM17 (analyte) at concentrations ranging from 400 to 12.5 nM obtained by a two fold dilution scheme (assuming a molecular weight of 52 kDa) was injected onto the surface at a flow rate of 30 μl/min in a 120 s pulse (association) plus an extra 180 s delay for the dissociation phase measurement. The RAM surface was regenerated using NaOH 30 mM, NaCl 150 mM and 10 mM Glycine, HCl pH 1.5 buffer solutions. Curves obtained at each concentration were double referenced by first subtracting the signal from the reference FC1 surface (RAM without any mouse anti-TACE mAb) followed by subtraction of the signal obtained from a running buffer injection (Biacore HBS-EP buffer).
Data were processed using BIAevaluation 3.1 software using the 1:1 Langmuir model. The suitability of the fit was measured by the values of the Refractive Index (RI) which have to tend to zero and the κ² value.

[3] = molecular target: T3, human ADAM17 H603-671 (MPD (Cter)) human Fc fusion (human, UniProt P78536 603-671); test: SPR (Biacore X100), about 700 RU m1022C3 captured, analyte 250 nM, FC2-FC1
T3 construct: not shown: human Fc domain at the C-terminus
T3 sequence (P78536 603-671): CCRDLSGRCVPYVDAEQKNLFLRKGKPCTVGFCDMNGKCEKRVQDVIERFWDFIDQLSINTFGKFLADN
Method: (§1) The experiment was performed on a Biacore X100 device. The 1022C3 is used as the ligand and the ADAM17 fragments and chimeric constructs are used as the analyte. The experiment is run at 10 μl/min at 25° C. on a rabbit anti-mouse polyclonal antibody (Mouse antibody capture kit, BR-1008-38, GE Healthcare) covalently linked to the matrix of both flowcells of a CM5 sensorchip (BR-1000-12) using the amine coupling kit (BR-1000-50, GE Healthcare), using the HBS-EP+ buffer (BR-1008-26, GE Healthcare) as the running buffer. This buffer is also used for the dilutions of the ligand and the analytes.
(§2) A solution of the 1022C3 at the concentration of 15 μg/ml is injected on the second flowcell (working surface) during 1 minute. At each cycle, one of the ADAM17 chimeric constructions (with a human Fc domain at the c-terminal positions) is injected at the concentration of 250 nM during 3 minutes on both flow cells: the reference without any 1022C3 (FC1) and the working cell with around 700 RU of m1022C3 (FC2). The registered signal corresponds to the difference between FC2 and FC1 responses.

[4] = molecular target: T4, human ADAM17 H223-563 (C-D) human Fc fusion (human, UniProt P78536 223-563); test: as above
T4 construct: not shown: human Fc domain at the C-terminus
T4 sequence (P78536 223-563): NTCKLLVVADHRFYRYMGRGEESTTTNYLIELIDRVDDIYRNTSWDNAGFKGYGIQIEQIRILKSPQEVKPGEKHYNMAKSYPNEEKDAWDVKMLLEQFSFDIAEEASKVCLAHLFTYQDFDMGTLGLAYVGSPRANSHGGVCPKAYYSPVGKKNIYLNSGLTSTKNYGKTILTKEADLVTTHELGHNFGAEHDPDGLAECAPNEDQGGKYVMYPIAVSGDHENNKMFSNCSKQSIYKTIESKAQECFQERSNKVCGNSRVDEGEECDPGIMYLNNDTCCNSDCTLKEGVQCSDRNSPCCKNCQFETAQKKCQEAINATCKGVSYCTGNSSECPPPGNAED
Method: as §1, §2

[5] = molecular target: T5, human ADAM17 H1-474 (P-C) human Fc fusion (human, UniProt P78536 18-474); test: as above
T5 construct: Range as printed; not shown: human Fc domain at the C-terminus
T5 sequence (P78536 18-474): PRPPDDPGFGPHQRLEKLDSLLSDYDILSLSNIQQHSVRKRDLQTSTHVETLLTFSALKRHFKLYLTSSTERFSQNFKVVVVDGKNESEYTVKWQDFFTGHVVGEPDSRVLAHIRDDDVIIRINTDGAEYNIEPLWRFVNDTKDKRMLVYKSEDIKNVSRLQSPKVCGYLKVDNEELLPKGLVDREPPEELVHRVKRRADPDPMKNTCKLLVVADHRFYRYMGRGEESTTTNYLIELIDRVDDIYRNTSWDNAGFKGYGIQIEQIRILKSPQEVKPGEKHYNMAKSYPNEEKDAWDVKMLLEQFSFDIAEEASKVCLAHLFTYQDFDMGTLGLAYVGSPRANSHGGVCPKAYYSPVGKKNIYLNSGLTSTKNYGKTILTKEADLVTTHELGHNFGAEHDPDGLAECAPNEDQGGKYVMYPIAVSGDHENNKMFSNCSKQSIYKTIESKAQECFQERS
Method: as §1, §2

[6] = molecular target: T6, human ADAM17 H475-563 (D) human Fc fusion (human, UniProt P78536 475-563); test: as above
T6 construct: not shown: human Fc domain at the C-terminus
T6 sequence (P78536 475-563): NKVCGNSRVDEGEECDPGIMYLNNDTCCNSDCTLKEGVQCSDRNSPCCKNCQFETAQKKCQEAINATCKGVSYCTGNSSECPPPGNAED
Method: as §1, §2

[7] = molecular target: T7, human ADAM17 H475-602 (D-MPD (Nter)) human Fc fusion (human, UniProt P78536 475-602); test: as above
T7 construct: not shown: human Fc domain at the C-terminus
T7 sequence (P78536 475-602): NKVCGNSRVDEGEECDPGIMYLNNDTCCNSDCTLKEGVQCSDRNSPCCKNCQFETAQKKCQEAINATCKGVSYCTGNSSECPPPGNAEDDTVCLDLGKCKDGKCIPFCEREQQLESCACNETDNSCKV
Method: as §1, §2

[8] = molecular target: T8, human ADAM17 H223-602 (C-D MPD (Nter)) human Fc fusion (human, UniProt P78536 223-602); test: as above
T8 construct: not shown: human Fc domain at the C-terminus
T8 sequence (P78536 223-602): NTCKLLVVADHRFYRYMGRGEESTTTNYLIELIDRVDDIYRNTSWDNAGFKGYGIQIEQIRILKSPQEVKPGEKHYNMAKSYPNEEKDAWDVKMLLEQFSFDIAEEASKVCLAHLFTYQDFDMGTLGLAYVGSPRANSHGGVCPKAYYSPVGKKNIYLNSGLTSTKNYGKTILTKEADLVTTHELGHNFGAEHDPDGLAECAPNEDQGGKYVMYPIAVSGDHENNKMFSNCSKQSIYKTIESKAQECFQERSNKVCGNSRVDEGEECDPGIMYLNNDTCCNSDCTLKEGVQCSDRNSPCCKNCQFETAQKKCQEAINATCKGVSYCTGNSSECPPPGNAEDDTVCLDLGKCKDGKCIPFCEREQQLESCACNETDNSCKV
Method: as §1, §2

[9] = molecular target: murine/human chimeric ADAM17 M1-602H603-671 (p-c-d-mpd (Nter)-MPD (Cter)) human Fc fusion (murine; human) (UniProt Q9Z0F8); test: as above
Sequence of murine/human chimeric ADAM17 M1-602H603-671 (p-c-d-mpd (Nter)-MPD (Cter)) human Fc fusion (murine; human) (Q9Z0F8 other isoform, or with tags, fused parts or gaps mutant limits assumed, form in doubt): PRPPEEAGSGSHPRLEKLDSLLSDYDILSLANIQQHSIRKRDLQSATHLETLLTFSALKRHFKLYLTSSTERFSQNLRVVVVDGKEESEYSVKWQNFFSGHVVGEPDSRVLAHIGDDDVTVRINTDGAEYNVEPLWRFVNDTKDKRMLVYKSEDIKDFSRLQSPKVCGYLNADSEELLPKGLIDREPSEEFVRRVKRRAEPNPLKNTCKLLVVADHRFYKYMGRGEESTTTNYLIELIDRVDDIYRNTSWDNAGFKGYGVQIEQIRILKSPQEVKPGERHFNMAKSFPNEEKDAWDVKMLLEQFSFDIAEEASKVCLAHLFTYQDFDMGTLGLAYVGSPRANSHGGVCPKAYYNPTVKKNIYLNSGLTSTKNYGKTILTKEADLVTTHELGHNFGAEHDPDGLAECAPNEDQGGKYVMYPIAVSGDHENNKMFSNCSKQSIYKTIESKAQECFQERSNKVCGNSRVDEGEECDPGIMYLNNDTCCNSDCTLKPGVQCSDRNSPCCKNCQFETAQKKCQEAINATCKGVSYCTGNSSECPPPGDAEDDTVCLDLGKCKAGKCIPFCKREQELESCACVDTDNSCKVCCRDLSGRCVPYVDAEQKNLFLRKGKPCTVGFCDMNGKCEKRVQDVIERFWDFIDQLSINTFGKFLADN

[10] = molecular target: murine ADAM17 M1-671 (p-c-d-mpd) human Fc fusion (murine; human) (UniProt Q9Z0F8); test: as above
Sequence of murine ADAM17 M1-671 (p-c-d-mpd) human Fc fusion (murine; human) (Q9Z0F8 18-671 limits assumed, form in doubt): as the sequence (Q9Z0F8 other isoform, or with tags, fused parts or gaps mutant limits assumed, form in doubt) above, with D589N, R593P counted along it

[11] = molecular target: ADAM17 fragments and chimeric constructs giving the positive response; test: as above
rhADAM10 = molecular target: T1, rhADAM10; test: ELISA on coated rhADAM10 (2.5 µg/ml), OD 450 nm
Method: The binding of 1022C3 to human ADAM17 and ADAM10 was determined by ELISA in comparison to the anti human ADAM10 antibody AB936 (R&D Systems). A ninety six well ELISA plate was coated with 100 μl/well of recombinant human (rh)ADAM17 (930-ADB, R&D Systems) at a concentration of 1 μg/ml or rhADAM10 (AD936, R&D Systems) at a concentration of 2.5 μg/ml in PBS. The coating solution was incubated overnight at 4° C. The plates were then blocked with PBS containing 0.5% gelatin (#22151, Serva Electrophoresis GmbH, Heidelberg, Germany) for 2 h at 37° C. The saturation buffer discarded by flicking plates, 100 μl of 1022C3 at a concentration of 1 μg/ml in PBS or 5 μg/ml of anti human ADAM10 polyclonal (AB936, R&D Systems) was added to the ELISA plates and incubated for 1 h at 37° C. After three washes, 100 μl horseradish peroxidase-conjugated anti human (A7164, Sigma) or anti goat (115-035-164, Jackson ImmunoResearch Europe Ltd) antibody solution diluted 1/5000 in PBS were incubated for 1 h at 37° C. After three washes, 100 μl/well TMB substrate (#UP664782, Uptima, Interchim, France) was added. After a 10 min incubation time at room temperature, the reaction was stopped using 1 M sulphuric acid and the optical density at 450 nm was measured (FIG. 7).

Row | Binder | EC50 (read off the curve) [1] | Kd [2] | koff [2] | kon [2] | response (RU) [3] | response (RU) [4] | response (RU) [5] | response (RU) [6] | response (RU) [7] | response (RU) [8] | response (RU) [9] | response (RU) [10] | response (RU) [11] | binding result (rhADAM10)
1 | enzymatically deglycosylated 1022C3 (antibody, V domains shown, also called 1022C3 enzymatically deglycosylated) VH: QVTLKESGPGILQPSQTLSLTCSFSGFSLDTSGMGVSWIRQPSGKGLEWLAHIYWDDDKRYNPSLKSRLTISKDTSSNQVFLKITSLDTADTATYYCARRSHFGNYYYAMDYWGQGTSVTVTS VL: DVQMTQTTSSLSASLGDRVTISCRASQDISSYLNWYQQKPDGTFKLLIFYTSRLQSGVPSKYSGSGSGTDYSLTISNLEQEDIAAYFCQQGKTLPLTFGAGTKLELK | ~0.5 nM | – | – | – | – | – | – | – | – | – | – | – | – | –
2 | murine monoclonal antibody 1022C3 (antibody, V domains shown, N-glycosylated asparagine in CDR-H1, Murine IgG from hybridoma I-4686, captured by anti-mouse antibody in the SPR assays; also called m1022C3; mAb 1022C3) VH: QVTLKESGPGILQPSQTLSLTCSFSGFSLNTSGMGVSWIRQPSGKGLEWLAHIYWDDDKRYNPSLKSRLTISKDTSSNQVFLKITSLDTADTATYYCARRSHFGNYYYAMDYWGQGTSVTVTS VL: DVQMTQTTSSLSASLGDRVTISCRASQDISSYLNWYQQKPDGTFKLLIFYTSRLQSGVPSKYSGSGSGTDYSLTISNLEQEDIAAYFCQQGKTLPLTFGAGTKLELK | ~0.5 nM | 1.27 nM | 0.00036 s⁻¹ | 284000 M⁻¹ s⁻¹ | < 10 RU | < 10 RU | < 10 RU | < 10 RU | < 10 RU | < 10 RU | < 10 RU | < 10 RU | 90 to 140 RU | no binding (tested: 1 µg/ml)
